Residue numbers refer to the chain shown, from its start.
T1: hIL-3 receptor (human, UniProt P26951)
T1 sequence: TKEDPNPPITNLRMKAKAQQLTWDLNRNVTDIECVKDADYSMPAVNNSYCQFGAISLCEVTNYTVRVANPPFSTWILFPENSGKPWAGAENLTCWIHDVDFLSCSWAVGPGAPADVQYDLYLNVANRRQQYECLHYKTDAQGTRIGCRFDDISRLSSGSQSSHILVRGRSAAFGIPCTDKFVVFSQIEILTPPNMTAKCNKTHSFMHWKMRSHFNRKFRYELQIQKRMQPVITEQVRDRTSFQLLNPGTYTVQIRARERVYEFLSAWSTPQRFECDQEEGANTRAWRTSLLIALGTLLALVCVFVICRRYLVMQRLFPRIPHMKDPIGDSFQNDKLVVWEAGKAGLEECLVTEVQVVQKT

B1: pMON13403 polypeptide (ligand)
chain: MANCSIMIDEIIHHLKRPPNPLLDPNNLNSEDMDILMDSNLRTPNLLAFPHASKQLENASGIEAILRNLQPCLPSATAAPSRHPIIIKAGDWQEFREKLTFYLVTLEQAQEQQ
B2: pMON13419 polypeptide (ligand)
chain: B1 chain with R42L, E97L, T100Q, V104S, T105S
B3: pMON13413 polypeptide (ligand)
chain: B1 chain with D38E, S39R, P50V, H51R, S53V, Q55H, E97L, T100Q, V104S, T105S
B4: pMON13411 polypeptide (ligand)
chain: B1 chain with D38E, S39R, P50V, H51R, S53V, Q55H, E97L, T100Q, V104S
B5: pMON13412 polypeptide (ligand)
chain: MANCSIMIDEIIHHLKRPPNPLLDPNNLNSEDMDILMERNLRTPNLLAFVRAVKHLENASGIEAILRNLQPCLPSATAAPSRHPIIIKAGDWQEFRLKLQFYLSTL
B6: pMON13404 polypeptide (ligand)
chain: MANCSIMIDEIIHHLKRPPAPLLDPNNLNAEDVDILMERNLRLPNLESFVRAVKNLENASGIEAILRNLQPCLPSATAAPSRHPIIIKAGDWQEFREKLQFYLVTLE
B7: pMON13420 polypeptide (ligand)
chain: MANCSIMIDEAIHHLKRPPAPSLDPNNLNDEDVSILMDRNLRLSNLESFVRAVKNLENASGIEAILRNLQPCLPSATAAPSRHPIIIKAGDWQEFREKLTFYLVTLEQAQEQQ
B8: pMON13421 polypeptide (ligand)
chain: B7 chain with V33M
B9: pMON13432 polypeptide (ligand)
chain: B7 chain with V33M, S44P
B10: native human interleukin-3, (1-133)hIL-3 (ligand)
chain: MAPMTQTTSLKTSWVNCSNMIDEIITHLKQPPLPLLDFNNLNGEDQDILMENNLRRPNLEAFNRAVKSLQNASAIESILKNLLPCLPLATAAPTRHPIHIKDGDWNEFRRKLTFYLKTLENAQAQQTTLSLAIF
B11: pMON13446 polypeptide (ligand)
chain: MAYPETDYKDDDDKNCSIMIDEIIHHLKRPPAPLLDPNNLNAEDVDILMERNLRLPNLESFVRAVKNLENASGIEAILRNLQPCLPSATAAPSRHPIIIKAGDWQEFREKLTFYLVTLEQAQEQQ
B12: pMON13390 polypeptide (ligand)
chain: B11 chain with A32N, A42S, V45M, L55T, E59L, S60A, N67H
B13: pMON13400 polypeptide (ligand)
chain: MANCSIMPDEAIHHLKIPPNPSLDSANLNSEDVSILMERNLRTPNLLAFVRAVKHLENASGIEAILRNLQPCLPSATAAPSRHPIIIKAGDWQEFREKLTFYLVTLEQAQEQQ
B14: pMON13409 polypeptide (ligand)
chain: B1 chain with M37L, D38E, S39R, P50V, H51R, S53V, Q55H
B15: pMON13408 polypeptide (ligand)
chain: B1 chain with M37I, D38E, S39R, P50V, H51R, S53V, Q55H
B16: pMON13467 polypeptide (ligand)
chain: B13 chain with P8I, A11L, E97L, T100Q, V104S, T105S
B17: pMON13414 polypeptide (ligand)
chain: B1 chain with M7I, D38E, S39R, P50V, H51R, S53V, Q55H
B18: pMON13440 polypeptide (ligand)
chain: B13 chain with P8I, A64P, H83T
B19: pMON13423 polypeptide (ligand)
chain: B1 chain with M7I, M33V, M37I, D38E, S39R, P50V, H51R, S53V, Q55H
B20: pMON13424 polypeptide (ligand)
chain: B1 chain with M7A, M33V, M37L, D38E, S39R, P50V, H51R, S53V, Q55H
B21: pMON13425 polypeptide (ligand)
chain: B1 chain with M7I, M33V, M37L, D38E, S39R, P50V, H51R, S53V, Q55H
B22: pMON13407 polypeptide (ligand)
chain: B1 chain with M33V, D38E, S39R, P50V, H51R, S53V, Q55H
B23: pMON13410 polypeptide (ligand)
chain: B1 chain with M37D, D38E, S39R, P50V, H51R, S53V, Q55H
B24: pMON13429 polypeptide (ligand)
chain: B1 chain with M7I, M33V, M37D, D38E, S39R, P50V, H51R, S53V, Q55H
B25: pMON13451 polypeptide (ligand)
chain: B13 chain with M7I, P8L, A64P, H83T
B26: pMON13402 polypeptide (ligand)
chain: B13 chain with P8I, A11L
B27: pMON13415 polypeptide (ligand)
chain: B1 chain with M7I, M33V, D38E, S39R, P50V, H51R, S53V, Q55H
B28: pMON13406 polypeptide (ligand)
chain: B1 chain with M7A, D38E, S39R, P50V, H51R, S53V, Q55H
B29: pMON13405 polypeptide (ligand)
chain: B1 chain with M7A, M33V, D38E, S39R, P50V, H51R, S53V, Q55H
B30: pMON13422 polypeptide (ligand)
chain: B1 chain with M7A, M33V, M37I, D38E, S39R, P50V, H51R, S53V, Q55H
B31: pMON13426 polypeptide (ligand)
chain: B1 chain with M7A, M33V, M37D, D38E, S39R, P50V, H51R, S53V, Q55H
B32: pMON13418 polypeptide (ligand)
chain: MANCSIMIDEIIHHLKRPPNPLLDPNNLNSEDMDILMERNLRTPNLLAFVRAVKHLENASGIEPILSNLQPCVPYWTAPPSRTPITIKAGDWQEFREKLTFYLVTLEQAQEQQ
B33: pMON13459 polypeptide (ligand)
chain: B32 chain with I11L, R17I, L22S, P25S, N26A, M33V, D34S, E97L, T100Q, V104S
B34: pMON13428 polypeptide (ligand)
chain: B32 chain with E97L, T100Q, V104S

Columns and labels:
[1] = target: T1, hIL-3 receptor; test: cell-based or functional assay
[2] = target: T1, hIL-3 receptor; test: cell-based or functional assay; remark: listed apart in the source

| Relative Biological Activity (AML 193 proliferation) [1] | EC50, AML 193 cell proliferation assay [2] | Binder |
| --- | --- | --- |
| 0.03 EC50 (1-133)hIL-3 / EC50 mutant |  | B1 |
| 0.015 EC50 (1-133)hIL-3 / EC50 mutant |  | B2 |
| 0.6 EC50 (1-133)hIL-3 / EC50 mutant |  | B3 |
| 1.2 EC50 (1-133)hIL-3 / EC50 mutant |  | B4 |
| 0.5 EC50 (1-133)hIL-3 / EC50 mutant |  | B5 |
| 1.3 EC50 (1-133)hIL-3 / EC50 mutant |  | B6 |
| 19 EC50 (1-133)hIL-3 / EC50 mutant |  | B7 |
| 0.5 EC50 (1-133)hIL-3 / EC50 mutant |  | B8 |
| 10 EC50 (1-133)hIL-3 / EC50 mutant |  | B9 |
| 1 EC50 (1-133)hIL-3 / EC50 mutant | 0.0302 nM | B10 |
| 21.5 EC50 (1-133)hIL-3 / EC50 mutant |  | B11 |
| 20 EC50 (1-133)hIL-3 / EC50 mutant |  | B12 |
| 0.09 EC50 (1-133)hIL-3 / EC50 mutant |  | B13 |
| 15 EC50 (1-133)hIL-3 / EC50 mutant |  | B14 |
| 7 EC50 (1-133)hIL-3 / EC50 mutant |  | B15 |
| 0.16 EC50 (1-133)hIL-3 / EC50 mutant |  | B16 |
| 4 EC50 (1-133)hIL-3 / EC50 mutant |  | B17 |

| Relative Biological Activity (AML 193 proliferation) [1] | EC50, AML 193 cell proliferation assay [2] | Binder |
| --- | --- | --- |
| 9 EC50 (1-133)hIL-3 / EC50 mutant |  | B18 |
| 0.4 EC50 (1-133)hIL-3 / EC50 mutant |  | B19 |
| 3 EC50 (1-133)hIL-3 / EC50 mutant |  | B20 |
| 6 EC50 (1-133)hIL-3 / EC50 mutant |  | B21 |
| 16 EC50 (1-133)hIL-3 / EC50 mutant |  | B22 |
| 0.4 EC50 (1-133)hIL-3 / EC50 mutant |  | B23 |
| > 0.0002 EC50 (1-133)hIL-3 / EC50 mutant |  | B24 |
| 0.1 EC50 (1-133)hIL-3 / EC50 mutant |  | B25 |
| 20 EC50 (1-133)hIL-3 / EC50 mutant |  | B26 |
| 4 EC50 (1-133)hIL-3 / EC50 mutant |  | B27 |
| 5 EC50 (1-133)hIL-3 / EC50 mutant |  | B28 |
| 9 EC50 (1-133)hIL-3 / EC50 mutant |  | B29 |
| 0.4 EC50 (1-133)hIL-3 / EC50 mutant |  | B30 |
| > 0.0003 EC50 (1-133)hIL-3 / EC50 mutant |  | B31 |
| 0.5 EC50 (1-133)hIL-3 / EC50 mutant |  | B32 |
| 0.003 EC50 (1-133)hIL-3 / EC50 mutant |  | B33 |
| 0.008 EC50 (1-133)hIL-3 / EC50 mutant |  | B34 |

Source: patent US6051217, “Therapeutic uses of interleukin-3 (IL-3) multiple mutation polypeptides” (G. D. Searle & Co., dated 2000)
